{"source": "paper PMC10975490", "about": "(Toxins, 2024)", "key": {"[1]": {"target": "Laticauda semifasciata leucine-rich α2-glycoprotein (LRG) (Laticauda semifasciata)", "assay": "SDS-PAGE under reducing and non-reducing conditions"}, "[2]": {"target": "Gloydius brevicauda basic phospholipase A2 (Gloydius brevicauda)", "sequence (O42187 17-138 limits assumed)": "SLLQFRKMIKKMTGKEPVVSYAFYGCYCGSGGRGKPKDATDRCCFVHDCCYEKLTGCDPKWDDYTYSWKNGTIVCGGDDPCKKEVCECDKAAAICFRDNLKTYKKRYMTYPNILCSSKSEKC", "assay": "inhibition of enzyme activity; PLA2 activity measured fluorometrically with 10-Pyrene-PC as substrate at various concentrations of LRG; apparent inhibition constant (Ki app) by non-linear least-squares analysis of relative PLA2 activity"}, "[3]": {"target": "Protobothrops flavoviridis leucine-rich α2-glycoprotein (LRG) (Protobothrops flavoviridis)", "assay": "SPR; BIAcore X; P. flavoviridis LRG amine-coupled to a CM5 chip; Cyt c or PLA2 as analyte; 25 °C; 50 mM HEPES, 0.05% Tween 20, pH 7.5, NaCl to ionic strength 0.2; 10 μL/min; 1:1 Langmuir model with drifting baseline, global fit; apparent Kd"}, "[4]": {"target": "Naja kaouthia leucine-rich α2-glycoprotein (LRG) (Naja kaouthia)", "assay": "SDS-PAGE under reducing and non-reducing conditions"}, "[5]": {"target": "Protobothrops flavoviridis leucine-rich α2-glycoprotein (LRG) (Protobothrops flavoviridis)", "assay": "SDS-PAGE under reducing and non-reducing conditions"}, "[6]": {"target": "the molecule itself", "assay": "SDS-PAGE under reducing and non-reducing conditions"}, "[7]": {"target": "T1, Protobothrops flavoviridis basic phospholipase A2 PL-X (Protobothrops flavoviridis, UniProt P06860 1-122)", "T1 construct": "Group II basic phospholipase A2 PL-X from the venom of Protobothrops flavoviridis; also called P. flavoviridis PL-X", "T1 sequence": "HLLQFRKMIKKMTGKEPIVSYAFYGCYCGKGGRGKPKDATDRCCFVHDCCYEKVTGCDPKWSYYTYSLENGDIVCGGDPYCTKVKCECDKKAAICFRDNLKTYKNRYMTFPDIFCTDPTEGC", "assay": "inhibition of enzyme activity; PLA2 activity measured fluorometrically with 10-Pyrene-PC as substrate at various concentrations of LRG; apparent inhibition constant (Ki app) by non-linear least-squares analysis of relative PLA2 activity", "settings": "both partners purified"}}, "data": [{"molecule": "Laticauda semifasciata leucine-rich α2-glycoprotein (LRG) (natural protein)", "values": [{"measurement": "stoichiometry N", "setting": "[1]", "value": 2}, {"measurement": "Ki", "setting": "[2]", "value": 1030, "unit": "nM"}]}, {"molecule": "Laticauda semifasciata cytochrome c (natural protein)", "values": [{"measurement": "Kd", "setting": "[3]", "value": 0.0149, "unit": "nM"}]}, {"molecule": "Naja kaouthia leucine-rich α2-glycoprotein (LRG) (natural protein)", "values": [{"measurement": "stoichiometry N", "setting": "[4]", "value": 2}, {"measurement": "Ki", "setting": "[2]", "value": 350, "unit": "nM"}]}, {"molecule": "Protobothrops flavoviridis leucine-rich α2-glycoprotein (LRG) (natural protein)", "values": [{"measurement": "stoichiometry N", "setting": "[5]", "value": 2}]}, {"molecule": "Elaphe climacophora leucine-rich α2-glycoprotein (PLIβ) (from UniProt C0STK7 24-332) (natural protein)", "values": [{"measurement": "Ki", "setting": "[2]", "value": 11.1, "unit": "nM"}]}, {"molecule": "Elaphe quadrivirgata PLIβ (natural protein) VLYCPPDPAPENITEFVCNSPSLHEFPTGFPVRTKLISVEFTQVSSLGVEALQGLPNLQELHLSNNRLKTLLSGLFRNLPELHTLDLSTNLLEDLPPEIFTSTTSLTLLSISENRLAKLRLSWFETLKELRILSLDNNQLKEVPISCFDKLEKLTFLDLSSNRLHRLSPDMFSGLDNLERLSLENNPIRCIAPKSFHGRPKLSIISLKNCSLTNIITGVFQPLNHLVLLDLSDNELTMLDPPVAIPSANLSLDLTGNPWACNCRMDNLLTWVKEHKIDLYSKEEIVCAFPKSFKGEEATSLHRSQICPC", "values": [{"measurement": "stoichiometry N", "setting": "[6]", "value": 2}]}, {"molecule": "Gloydius brevicauda leucine-rich α2-glycoprotein (PLIβ) (natural protein, UniProt O93233 24-331, looked up, PLIβ (snake LRG) of Gloydius brevicauda (Agkistrodon blomhoffii siniticus), from serum; also called G. brevicauda LRG; G. brevicauda PLIβ) VLYCPPTPAPENVTEFVCNSPSLHEFPTGFPARAKMISVEFTQVSSLGVEALQGLPNLQELHLSNNRLKTLPSGLFRNLPQLHTLDLSTNHLEDLPPEIFTNASSLILLPLSENQLAELHPSWFQTLGELRILGLDHNQVKEIPISCFDKLKKLTSLDLSFNLLRRLAPEMFSGLDNLEKLILESNPIQCIVGRTFHWHPKLTVLSLKNSSLTNIMGFFQPLEQLELLDLSDNELTTMEPPVYKTSANLSLDLSGNPWACDCRLDNLLTWVNEHNIHLYSKEEIVCASPKHFKGECATSLHKSQICPC", "values": [{"measurement": "stoichiometry N", "setting": "[6]", "value": 2}, {"measurement": "Ki", "setting": "[7]", "value": 26.1, "unit": "nM"}]}]}
